Results published in paper PMC10991935.

Tested on: PsPIWI-RE (Pseudomonas stutzeri DSM 4166)
Experiment: fluorescence polarization
Conditions: FP: 20 mM Tris-HCl pH 7.5, 250 mM NaCl, 5 mM MgCl2, 5 nM oligo, 37 C, 30 min, EMSA: 20 mM Tris-HCl pH 8.0, 150 mM NaCl, 2 mM DTT, 5 mM MgCl2, 1 uM oligo, 1-3 uM

Row | Sequence | Kd [nM] | Kd (5' phosphate) [nM]
1 | AGAGGUAGUAGGUUGUAUAGU [5'OH-RNA (5'A) 21-nt guide] | 88.4 | –
2 | CGAGGUAGUAGGUUGUAUAGU [5'OH-RNA (5'C) 21-nt guide] | 152 | –
3 | GGAGGUAGUAGGUUGUAUAGU [5'OH-RNA (5'G) 21-nt guide] | 86.7 | –
4 | TGAGGTAGTAGGTTGTATAGT [5'OH-DNA (5'T) 21-nt guide] | 19.7 | –
5 | TGAGGTAGTAGGTTGTATAGT [5'P-DNA (5'T) 21-nt guide] | – | 24.6
6 | UGAGGUAGUAGGUUGUAUAGU [5'OH-RNA (5'U) 21-nt guide] | 86.5 | –
7 | UGAGGUAGUAGGUUGUAUAGU [5'P-RNA (5'U) 21-nt guide] | – | 64.4
